# From publication PMC1065253
# T1: SeqA(E5K) (Escherichia coli, UniProt P0AFY8 1-181, E5K)
# T1 sequence: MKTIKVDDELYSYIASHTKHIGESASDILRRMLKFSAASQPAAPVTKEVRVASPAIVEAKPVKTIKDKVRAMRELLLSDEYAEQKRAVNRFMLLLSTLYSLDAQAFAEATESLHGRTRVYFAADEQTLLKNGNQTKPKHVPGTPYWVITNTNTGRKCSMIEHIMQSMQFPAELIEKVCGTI
# T2: SeqA(D8K) (Escherichia coli, UniProt P0AFY8 1-181, D8K)
# T2 sequence: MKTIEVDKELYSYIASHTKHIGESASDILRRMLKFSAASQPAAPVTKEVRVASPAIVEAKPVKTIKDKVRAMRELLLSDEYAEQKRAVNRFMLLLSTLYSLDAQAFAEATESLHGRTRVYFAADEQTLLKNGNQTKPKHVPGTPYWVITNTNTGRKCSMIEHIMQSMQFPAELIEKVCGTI
# T3: SeqA(E9K) (Escherichia coli, UniProt P0AFY8 1-181, E9K)
# T3 sequence: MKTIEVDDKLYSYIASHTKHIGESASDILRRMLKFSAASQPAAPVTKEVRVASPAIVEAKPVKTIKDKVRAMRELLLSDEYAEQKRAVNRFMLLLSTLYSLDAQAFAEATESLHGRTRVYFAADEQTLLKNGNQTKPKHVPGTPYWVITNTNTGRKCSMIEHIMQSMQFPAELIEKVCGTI
# T4: SeqA(E5,9K) (Escherichia coli, UniProt P0AFY8 1-181, E5K;E9K)
# T4 sequence: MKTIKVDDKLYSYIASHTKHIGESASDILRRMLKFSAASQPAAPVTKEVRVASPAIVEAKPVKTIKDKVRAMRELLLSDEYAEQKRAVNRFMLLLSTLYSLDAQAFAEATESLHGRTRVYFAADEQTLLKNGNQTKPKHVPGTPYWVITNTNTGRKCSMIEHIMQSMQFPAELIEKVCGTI
# T5: SeqA(D7K) (Escherichia coli, UniProt P0AFY8 1-181, D7K)
# T5 sequence: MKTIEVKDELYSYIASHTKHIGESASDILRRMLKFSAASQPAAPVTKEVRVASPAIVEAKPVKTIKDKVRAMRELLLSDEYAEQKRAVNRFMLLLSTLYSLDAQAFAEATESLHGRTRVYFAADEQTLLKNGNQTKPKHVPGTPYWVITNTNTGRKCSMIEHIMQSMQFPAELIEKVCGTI
# T6: SeqA (Escherichia coli, UniProt P0AFY8 1-181)
# T6 sequence: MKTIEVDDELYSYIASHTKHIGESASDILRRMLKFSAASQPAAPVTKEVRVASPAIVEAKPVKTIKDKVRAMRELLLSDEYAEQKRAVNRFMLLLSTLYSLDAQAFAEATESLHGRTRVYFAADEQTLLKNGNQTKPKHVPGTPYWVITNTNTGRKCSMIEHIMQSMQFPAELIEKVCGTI
# T7: SeqA(T18G) (Escherichia coli, UniProt P0AFY8 1-181, T18G)
# T7 sequence: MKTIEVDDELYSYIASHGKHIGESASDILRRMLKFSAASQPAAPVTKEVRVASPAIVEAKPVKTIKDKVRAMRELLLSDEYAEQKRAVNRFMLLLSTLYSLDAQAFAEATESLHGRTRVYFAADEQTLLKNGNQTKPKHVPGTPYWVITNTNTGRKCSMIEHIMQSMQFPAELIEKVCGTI
# Tests used:
# [1] = target: T1, SeqA(E5K); assay: EMSA
# [2] = target: T2, SeqA(D8K); assay: EMSA
# [3] = target: T3, SeqA(E9K); assay: EMSA
# [4] = target: T4, SeqA(E5,9K); assay: EMSA
# [5] = target: T5, SeqA(D7K); assay: EMSA
# [6] = target: T6, SeqA; assay: AFM
# [7] = target: T6, SeqA; assay: AFM; remark: listed apart in the source
# [8] = target: T7, SeqA(T18G); assay: EMSA
# [9] = target: T6, SeqA; assay: EMSA
binder,measurement,setting,value
"75 bp, two hemi-sites, 21 bp spacing (dsDNA, hemi-methylated GATC (N6-methyladenine on one strand; which strand not stated)) DNA 1: CTGGGTATTAAAAAGAAGATCTATTTATGTTCAGTTCTGATCTGTTCTGTTCTCTTATTAGGCTCGCACTGCCCT DNA 2: AGGGCAGTGCGAGCCTAATAAGAGAACAGAACAGATCAGAACTGAACATAAATAGATCTTCTTTTTAATACCCAG",binding result,[1],binds
same,binding result,[2],binds
same,binding result,[3],binds
same,binding result,[4],no binding
same,binding result,[5],no binding
same,binding result,[6],binds
"75 bp, two hemi-sites, 31 bp spacing (dsDNA, hemi-methylated GATC (N6-methyladenine on one strand; which strand not stated)) DNA 1: CTGGGTATTAAAAAGAAGATCTATTTATGTTCAGTTCTGTTCTGTTCTGATCTCTTATTAGGCTCGCACTGCCCT DNA 2: AGGGCAGTGCGAGCCTAATAAGAGATCAGAACAGAACAGAACTGAACATAAATAGATCTTCTTTTTAATACCCAG",binding result,[7],binds
"75 bp, two hemi-sites, 11 bp spacing (dsDNA, hemi-methylated GATC (N6-methyladenine on one strand; which strand not stated)) DNA 1: CTGGGTATTAAAAAGAAGATCTATTTATGATCAGTTCTGTTCTGTTCTGTTCTCTTATTAGGCTCGCACTGCCCT DNA 2: AGGGCAGTGCGAGCCTAATAAGAGAACAGAACAGAACAGAACTGATCATAAATAGATCTTCTTTTTAATACCCAG",binding result,[7],binds
"75 bp, two hemi-sites, 16 bp spacing (Fig 2E) (dsDNA, hemi-methylated GATC (N6-methyladenine on one strand; which strand not stated)) DNA 1: CTGGGTATTAAAAAGAAGATCTATTTATGTTCAGATCTGTTCTGTTCTGTTCTCTTATTAGGCTCGCACTGCCCT DNA 2: AGGGCAGTGCGAGCCTAATAAGAGAACAGAACAGAACAGATCTGAACATAAATAGATCTTCTTTTTAATACCCAG",binding result,[7],binds
"75 bp, two hemi-sites, 16 bp spacing (Fig 3A) (dsDNA, hemi-methylated GATC (N6-methyladenine on one strand; which strand not stated)) DNA 1: CTGGGTATTAAAAAGAAGATCTATTTATTTAGAGATCTGTTCTATTGTGATCTCTTATTAGGATCGCACTGCCCT DNA 2: AGGGCAGTGCGATCCTAATAAGAGATCACAATAGAACAGATCTCTAAATAAATAGATCTTCTTTTTAATACCCAG",binding result,[8],binds
same,binding result,[9],binds
